Results on one substance are retold here after publication PMC7118729.

This test concerns the target SARS-CoV non-structural protein 15 (Nsp15) [change] (SARS-CoV). Description: SEC. For orientation: Size exclusion chromatography separates by hydrodynamic size, large species first.

Turning to “SARS-CoV non-structural protein 15 (Nsp15) [change] (enzyme)”, the stoichiometry N (usually a count of units in the complex or per binding partner) is 3.
